Experiment [1] concerns the target T1, recombinant cynomolgus monkey CD27-Fc fusion protein (R&D systems, Cat #9904-CD-100) (cynomolgus monkey, UniProt P26842 21-192 (human entry), limits assumed).
T1 construct: Bought protein; also called Cyno CD27-Fc; not shown: Fc part of the fusion; not described
T1 chain: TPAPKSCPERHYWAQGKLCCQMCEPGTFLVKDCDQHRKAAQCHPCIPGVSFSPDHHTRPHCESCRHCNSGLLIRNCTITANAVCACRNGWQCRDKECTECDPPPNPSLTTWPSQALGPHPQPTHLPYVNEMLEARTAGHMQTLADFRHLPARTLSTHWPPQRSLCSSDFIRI
The experiment in a line: BLI (Octet HTX); cyno CD27-Fc on AR2G sensor, antibody monovalent for CD27 in solution; 1:1 model. Background: Biolayer interferometry detects binding as a change in optical thickness at a sensor tip.

Experiment [2] has as its target T2, recombinant His-tagged human CD27 protein (Sino Biological, Cat #10039-H08B1) (human, UniProt P26842 20-192).
T2 construct: Bought protein; also called Human CD27-His; not shown: His tag
Kind of experiment: BLI (Octet HTX); CD27-His on anti-Penta-HIS sensor, antibody monovalent for CD27 in solution; 1:1 model.

Experiment [3] concerns the target T3, human FcγRIa on the cell surface (transfected CHO-S cells, M0/M1 macrophages, hMDM, FcγRI effector reporter … (human, UniProt P12314 16-374)).
T3 construct: whole, on cells; also called CD64
Kind of experiment: flow cytometry on CHO-S cells transiently expressing human FcγRIa, PE goat anti-human IgG F(ab')2, % PE+ cells.

In general, Kd refers to the free concentration of one partner at which half of the binding sites on the other are occupied at equilibrium, for simple one-to-one binding. What is called koff is the rate constant with which the complex falls apart. What is called kon is the rate constant with which the complex forms. One may read the EC50 (read off the curve) as the concentration at which the effect is half-maximal.

T3 sequence (P12314 16-374): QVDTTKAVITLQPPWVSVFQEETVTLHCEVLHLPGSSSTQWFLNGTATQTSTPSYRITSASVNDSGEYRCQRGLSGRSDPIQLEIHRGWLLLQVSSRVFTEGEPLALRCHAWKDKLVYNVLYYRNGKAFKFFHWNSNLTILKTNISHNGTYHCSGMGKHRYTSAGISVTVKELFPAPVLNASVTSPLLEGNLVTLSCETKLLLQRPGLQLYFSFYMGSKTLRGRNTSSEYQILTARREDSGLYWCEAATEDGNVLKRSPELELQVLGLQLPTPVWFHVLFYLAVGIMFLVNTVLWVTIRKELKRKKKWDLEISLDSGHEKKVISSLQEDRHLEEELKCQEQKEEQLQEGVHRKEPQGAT

B1: IgG1-CD27-A as bispecific antibody with one CD27-specific Fab-arm and one non-binding Fab-arm (bispecific antibody)
chain 1: QVQLMQSGSELKKPGASVKVSCRASGYTFTTYAMNWVRQAPGQGPEWMGWINTNTGNPTYAQGFTGRFVFSLDTTVTTTYLQISSLKAEDTAVYFCAREAGSFDYWGQGTLVTVSS
chain 2: QSALTQPASVSGSPGQSITISCTGTSSDVYYYNYVSWYQQHPGRAPKLVIYDVSNRPSGVSNRFSGSKSGNTASLTISGLRAEDEADYYCSSYTVNRVWVFGGGTKLTVL
chain 3: QVQLVQSGAEVKKPGASVKVSCQASGYRFSNFVIHWVRQAPGQRFEWMGWINPYNGNKEFSAKFQDRVTFTADTSANTAYMELRSLRSADTAVYYCARVGPYSWDDSPQDNYYMDVWGKGTTVIVSSASTKGPSVFPLAPSSKSTSGGTAALGCLVKDYFPEPVTVSWNSGALTSGVHTFPAVLQSSGLYSLSSVVTVPSSSLGTQTYICNVNHKPSNTKVDKRVEPKSCDKTHTCPPCPAPEFEGGPSVFLFPPKPKDTLMISRTPEVTCVVVAVSHEDPEVKFNWYVDGVEVHNAKTKPREEQYNSTYRVVSVLTVLHQDWLNGKEYKCKVSNKALPAPIEKTISKAKGQPREPQVYTLPPSREEMTKNQVSLTCLVKGFYPSDIAVEWESNGQPENNYKTTPPVLDSDGSFFLYSRLTVDKSRWQQGNVFSCSVMHEALHNHYTQKSLSLSPG
chain 4: EIVLTQSPGTLSLSPGERATFSCRSSHSIRSRRVAWYQHKPGQAPRLVIHGVSNRASGISDRFSGSGSGTDFTLTITRVEPEDFALYYCQVYGASSYTFGQGTKLERKRTVAAPSVFIFPPSDEQLKSGTASVVCLLNNFYPREAKVQWKVDNALQSGNSQESVTEQDSKDSTYSLSSTLTLSKADYEKHKVYACEVTHQGLSSPVTKSFNRGEC
In the case of B1, in experiment [1], the Kd stood at 120 nM, the koff turned out to be 0.02 s⁻¹ and the kon was found to be 170000 M⁻¹ s⁻¹. In experiment [2], the Kd worked out at 130 nM, the koff turned out to be 0.018 s⁻¹ and the kon was found to be 130000 M⁻¹ s⁻¹.

B2: dostarlimab (antibody)
chain 1: not shown
chain 2: DIQLTQSPSFLSAYVGDRVTITCKASQDVGTAVAWYQQKPGKAPKLLIYWASTLHTGVPSRFSGSGSGTEFTLTISSLQPEDFATYYCQHYSSYPWTFGQGTKLEIKRTVAAPSVFIFPPSDEQLKSGTASVVCLLNNFYPREAKVQWKVDNALQSGNSQESVTEQDSKDSTYSLSSTLTLSKADYEKHKVYACEVTHQGLSSPVTKSFNRGEC
On to B2, for which the “EC50 (read off the curve)” value in experiment [3] was around 0.2 µg/mL.

These data come from US20260250404A1 (Genmab, published 2026).
